The record followed here is PMC3942486, “The Ansamycin Antibiotic, Rifamycin SV, Inhibits BCL6 Transcriptional Repression and Forms a Complex with the BCL6-BTB/POZ Domain” (PLoS ONE, 2014).

The target in this experiment is BCL6-POZ domain (residues 7 to 128 of human BCL6, C8Q, C67R, C84N) (human, UniProt P41182 7-128, cysteine8 mutated to glutamine | cysteine67 mutated to arginine | cysteine84 …). As to the kind of experiment: fluorescence polarisation; fixed concentration of BODIPY TMR-labelled SMRT peptide, increasing concentration of BCL6-POZ domain; PBS, 0.05% (v/v) Triton X-100, 0.1 mg/mL BSA; room temperature; triplicate; one-site binding (hyperbola) fit. The settings on record: both partners purified.

B1: 1-naphthyl-SMRT peptide, labelled with BODIPY TMR (peptide)
chain: LVATVKEAGRSIXEIPR
modifications: 1-naphthylalanine in place of histidine1426; BODIPY TMR dye coupled via the amino-terminal cysteine
B1: the Kd is 11 µM. That is a double-digit micromolar value.

B2: 2-naphthyl-SMRT peptide, labelled with BODIPY TMR (peptide)
chain: LVATVKEAGRSIXEIPR
modifications: 2-naphthylalanine in place of histidine1426; BODIPY TMR dye coupled via the amino-terminal cysteine
As to B2, the Kd was 154 µM.
